To fix the notation:
B1: MCT1 (monocarboxylate transporter 1), endogenous (other, human, UniProt P53985 1-500, looked up)
chain: MPPAVGGPVGYTPPDGGWGWAVVIGAFISIGFSYAFPKSITVFFKEIEGIFHATTSEVSWISSIMLAVMYGGGPISSILVNKYGSRIVMIVGGCLSGCGLIAASFCNTVQQLYVCIGVIGGLGLAFNLNPALTMIGKYFYKRRPLANGLAMAGSPVFLCTLAPLNQVFFGIFGWRGSFLILGGLLLNCCVAGALMRPIGPKPTKAGKDKSKASLEKAGKSGVKKDLHDANTDLIGRHPKQEKRSVFQTINQFLDLTLFTHRGFLLYLSGNVIMFFGLFAPLVFLSSYGKSQHYSSEKSAFLLSILAFVDMVARPSMGLVANTKPIRPRIQYFFAASVVANGVCHMLAPLSTTYVGFCVYAGFFGFAFGWLSSVLFETLMDLVGPQRFSSAVGLVTIVECCPVLLGPPLLGRLNDMYGDYKYTYWACGVVLIISGIYLFIGMGINYRLLAKEQKANEQKKESKEEETSIDVAGKPNEVTKAAESPDQKDTDGGPKEEESPV
notes: Endogenous protein in HEK 293T or MM1S cell lysates

One assay concerns the target T1, HA-CUL4A (UniProt Q13619 1-759, limits assumed).
T1 construct: Purified from HEK293T cells and incubated with MM1S cell extracts; not shown: HA tag
The assay can be described thus: HA-CUL4A purified from HEK293T cells, incubated with MM1S extracts, immunoblot. An excerpt:
Bound protein fractions were subjected to immunoblot analysis using the indicated antibodies.
(In general: In western blotting, separated proteins are transferred to a membrane and probed.)

Assay [1] addresses T2, FLAG-MCT1 (human, UniProt P53985 1-500).
T2 construct: Expressed in HEK293T cells; The tag is written first only because the name prints it so; also called Flag-tagged MCT1; not shown: FLAG tag
T2 sequence (looked up): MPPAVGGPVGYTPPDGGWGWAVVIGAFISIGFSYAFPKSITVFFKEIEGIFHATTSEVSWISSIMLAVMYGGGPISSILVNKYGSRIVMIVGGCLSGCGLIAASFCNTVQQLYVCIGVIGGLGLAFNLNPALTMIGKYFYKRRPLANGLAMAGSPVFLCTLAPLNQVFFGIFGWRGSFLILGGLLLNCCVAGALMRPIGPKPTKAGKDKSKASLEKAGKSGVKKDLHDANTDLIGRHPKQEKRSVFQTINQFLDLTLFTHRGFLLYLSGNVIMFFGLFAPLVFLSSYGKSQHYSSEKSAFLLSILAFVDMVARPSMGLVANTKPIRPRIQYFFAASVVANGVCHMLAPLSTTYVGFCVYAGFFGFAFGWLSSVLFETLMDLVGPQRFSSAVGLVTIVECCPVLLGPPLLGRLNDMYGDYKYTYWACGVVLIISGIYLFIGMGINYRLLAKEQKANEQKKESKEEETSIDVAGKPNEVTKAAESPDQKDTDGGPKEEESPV
Kind of assay: FLAG-MCT1 immunoprecipitation from cycloheximide-treated HEK293T cells, immunoblot (FIG. 13G).

The target of assay [2] is T3, Strep-Flag tagged CRBN (CRBN-SF) (human, UniProt Q96SW2 1-442).
T3 construct: Tag put at the C-terminus from the vector's name (pcDNA-C-SF-TAP); also called CRBN-SF-TAP; CRBN-tandem-Strep-FLAG-tagged; not shown: tandem Strep-FLAG tag of vector pcDNA-C-SF-TAP
T3 sequence (Q96SW2 whole entry): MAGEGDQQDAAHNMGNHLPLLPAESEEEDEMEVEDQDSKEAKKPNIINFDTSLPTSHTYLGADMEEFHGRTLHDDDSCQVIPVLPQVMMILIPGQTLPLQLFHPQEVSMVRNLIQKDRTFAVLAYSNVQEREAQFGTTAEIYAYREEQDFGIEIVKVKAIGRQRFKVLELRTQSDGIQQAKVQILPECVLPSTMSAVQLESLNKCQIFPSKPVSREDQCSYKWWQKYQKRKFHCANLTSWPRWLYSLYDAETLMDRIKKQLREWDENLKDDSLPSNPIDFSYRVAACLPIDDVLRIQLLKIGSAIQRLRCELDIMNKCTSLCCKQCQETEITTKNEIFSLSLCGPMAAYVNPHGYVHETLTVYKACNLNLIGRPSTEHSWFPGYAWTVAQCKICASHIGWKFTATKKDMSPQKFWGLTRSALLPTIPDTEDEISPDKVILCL
The assay can be described thus: tandem affinity purification (Strep, then Flag) from HEK 293T cells, mass spectrometry.

Assay [3] addresses T4, Cereblon (CRBN), human, wild type, without tag (endogenous or expressed from plasmid) (human, UniProt Q96SW2 1-442).
T4 construct: Endogenous protein in HEK 293T or MM1.S/MM1S lysates, or untagged wild-type CRBN re-expressed in CRBN-/- HEK 293T cells; also called CRBN WT; endogenous CRBN
The assay can be described thus: co-immunoprecipitation.
Method: Immunocomplexes were probed with antibodies to the indicated proteins.
(§1) Cell samples were lysed in lysis buffer (NaCl 150mM, Tris-HCl 50 mM, MgCl2 5 mM, EDTA 1 mM, NP-40 0,1%, Glycerol 5% and inhibitors) for whole cell lysates, immunoprecipitations or pulldown experiments. […] Briefly, the cellular lysates were centrifuged 15 min at 14,000 rpm at 4° C. to separate from cellular debris. Protein concentration in the supernatants was measured before Laemmli buffer was added. The lysates were separated by SDS-PAGE and blotted onto PVDF (polyvinylidene difluoride) membranes. After blotting, PVDF membranes were stained with Ponceau solution to evaluate protein loading. After washing and blocking unspecific bindings in 5% milk, the membranes were incubated with primary antibodies. After addition of horseradish peroxidase coupled secondary antibodies, western blot membranes were developed using the ECL (enhanced chemoluminescence) method (SuperSignal West reagents from Thermo Scientific). […] For the experiments using a protein cross linker, DSS (Pierce) was added to the cells to a final concentration of 1 mM for 45 minutes at RT. […] After washing the beads four times in lysis buffer, Laemmli buffer was added and proteins were analyzed by SDS- electrophoresis.

For assay [4], the target named is T2, FLAG-MCT1. The assay can be described thus: Flag-bead immunoprecipitation of Flag-MCT1 from HEK 293T cells with or without co-expressed CRBN, Western blot for CD147.
Method: After lysis, MCT1 was immunoprecipitated with Flag-beads. Binding to CD147 was analysed by Western Blot.
as §1
The target in assay [5] is B1. The assay can be described thus: FLAG-CD147 immunoprecipitation from cycloheximide-treated HEK293T cells, immunoblot (FIG. 13F). How it is done:
Cells were treated with cycloheximide (CHX) for the indicated times before lysis.

Assay [6] addresses T4, Cereblon (CRBN), human, wild type, …. Kind of assay: heading of FIG. 16: FLAG immunoprecipitation from HEK293T cells (16A) and GST-CRBN pull-down (16B).

T4 sequence (Q96SW2 whole entry): as above
T1 sequence (Q13619 whole entry): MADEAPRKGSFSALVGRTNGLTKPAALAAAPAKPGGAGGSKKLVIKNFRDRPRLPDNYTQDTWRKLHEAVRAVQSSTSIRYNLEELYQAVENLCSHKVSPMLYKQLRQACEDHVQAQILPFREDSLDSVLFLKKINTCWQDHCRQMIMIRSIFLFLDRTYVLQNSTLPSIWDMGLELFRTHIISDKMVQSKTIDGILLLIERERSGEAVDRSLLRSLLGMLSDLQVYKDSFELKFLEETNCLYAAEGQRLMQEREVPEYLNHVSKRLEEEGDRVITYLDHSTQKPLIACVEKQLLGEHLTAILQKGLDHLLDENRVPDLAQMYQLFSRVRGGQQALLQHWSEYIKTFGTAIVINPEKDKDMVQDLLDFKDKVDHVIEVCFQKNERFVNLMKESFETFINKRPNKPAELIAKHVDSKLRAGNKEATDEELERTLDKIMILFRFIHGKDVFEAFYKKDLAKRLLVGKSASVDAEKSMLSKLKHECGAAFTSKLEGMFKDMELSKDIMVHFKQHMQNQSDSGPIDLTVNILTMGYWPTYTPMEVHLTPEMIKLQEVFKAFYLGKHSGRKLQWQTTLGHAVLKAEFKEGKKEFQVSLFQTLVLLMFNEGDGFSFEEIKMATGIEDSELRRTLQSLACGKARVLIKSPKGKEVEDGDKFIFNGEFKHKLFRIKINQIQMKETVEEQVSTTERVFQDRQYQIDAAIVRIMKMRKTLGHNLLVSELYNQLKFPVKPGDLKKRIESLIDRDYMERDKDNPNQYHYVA

With B1, the binding result with HA-CUL4A is listed as “no binding”.

B2: CD147 (Basigin, EMMPRIN), endogenous (other, human, UniProt P35613-2 22-269, looked up)
chain: AAGTVFTTVEDLGSKILLTCSLNDSATEVTGHRWLKGGVVLKEDALPGQKTEFKVDSDDQWGEYSCVFLPEPMGTANIQLHGPPRVKAVKSSEHINEGETAMLVCKSESVPPVTDWAWYKITDSEDKALMNGSESRFFVSSSQGRSELHIENLNMEADPGQYRCNGTSSKGSDQAIITLRVRSHLAALWPFLGIVAEVLVLVTIIFIYEKRRKPEDVLDDDDAGSAPLKSSGQHQNDKGKNVRQRNSS
modifications: core-glycosylated (CG) and high-glycosylated (HG) forms
notes: as for B1
For B2, the binding result is given as “binds” with FLAG-MCT1 [1], “binds” in assay [2], “binds” in assay [3] and “no binding” with HA-CUL4A.

B3: HA-CD147 (other, human, UniProt P35613-2 22-269, looked up)
chain: AAGTVFTTVEDLGSKILLTCSLNDSATEVTGHRWLKGGVVLKEDALPGQKTEFKVDSDDQWGEYSCVFLPEPMGTANIQLHGPPRVKAVKSSEHINEGETAMLVCKSESVPPVTDWAWYKITDSEDKALMNGSESRFFVSSSQGRSELHIENLNMEADPGQYRCNGTSSKGSDQAIITLRVRSHLAALWPFLGIVAEVLVLVTIIFIYEKRRKPEDVLDDDDAGSAPLKSSGQHQNDKGKNVRQRNSS
notes: Expressed in HEK 293T cells; not shown: HA tag
As for B3, the binding result with FLAG-MCT1 [4] is “binds”.

B4: FLAG-CD147 (other, human, UniProt P35613-2 22-269, looked up)
chain: AAGTVFTTVEDLGSKILLTCSLNDSATEVTGHRWLKGGVVLKEDALPGQKTEFKVDSDDQWGEYSCVFLPEPMGTANIQLHGPPRVKAVKSSEHINEGETAMLVCKSESVPPVTDWAWYKITDSEDKALMNGSESRFFVSSSQGRSELHIENLNMEADPGQYRCNGTSSKGSDQAIITLRVRSHLAALWPFLGIVAEVLVLVTIIFIYEKRRKPEDVLDDDDAGSAPLKSSGQHQNDKGKNVRQRNSS
notes: Expressed in HEK293T cells; The tag is written first only because the name prints it so; also called FLAG-tagged CD147; not shown: FLAG tag
B4: the binding result in assay [5] and in assay [6] was “binds” each time.

The values are drawn from US20170296524A1 (KLINIKUM RECHTS DER ISAR DER TECHNISCHEN UNIVERSITAT MUNCHEN, published 2017).
